This passage reports other: MALS molecular weight (MW) and stoichiometry N results from PMC9410881.

In test [1] the target is Aca10 E52R mutant. As to the kind of experiment: SEC-MALS. To be noted: parent: 17.39. (Size exclusion chromatography separates by hydrodynamic size, large species first.)
The target of test [2] is Aca10 D7K variant. As to the kind of experiment: SEC-MALS. To be noted: parent: 17.39.
Test [3] addresses Aca10 from Pseudomonas citronellolis (pcAca10), wild type (Pseudomonas citronellolis). Description: SEC-MALS; Superdex 200 Increase 10/300 GL, SEC buffer (20 mM Tris-HCl pH 8.0, 150 mM NaCl), 0.5 ml/min, 20°C; self-association of Aca10.
The target in test [4] is Aca10 G49Y mutant. As to the kind of experiment: SEC-MALS. The conditions noted are these: parent: 17.39.

For “Aca10 from Pseudomonas citronellolis (pcAca10), wild type E52R”, the other: MALS molecular weight (MW) in test [1] is 14.2 kDa.

Turning to “Aca10 from Pseudomonas citronellolis (pcAca10), wild type D7K”, the other: MALS molecular weight (MW) in test [2] turned out to be 17 kDa.

Usually stoichiometry N stands for a count of units in the complex or per binding partner. Substance “Aca10 from Pseudomonas citronellolis (pcAca10), wild type (natural protein)” registered a stoichiometry N in test [3] of 2.

Turning to “Aca10 from Pseudomonas citronellolis (pcAca10), wild type G49Y”, in test [4], the other: MALS molecular weight (MW) worked out at 10.2 kDa.
